The values below come from the DeepSol protein solubility set.

A short description of this series: soluble on expression in E. coli; label from the status in PepcDB or PDB records.
Regarding “MGSDKIHHHHHHMLVNAYFIKLDSCQLPPRDLAVSVFLNLSKFNMPLTMPHLLELFVDSYFIEKKKRLRQCLQEPLDCGPVFHFSEPWEGLLSGYCTVLEDPLDGYFKLYYRGLSDGNLECSDGEVTCLALSHNGVEWFRPNLGLHKWLNRKSTNIILANNTPDSHNFTPFLDSSPTTLSHQRYKALAGVAPSGLNAYFSADGINWTNPYSKPVLTTGMFDSQNVAFWSSSEQKYVCFMRTWTGEGFSGIRTISRSTSTDFSSWTVPRRMSFGRIPLEHLYTNQTQPYPRAQQIYIGLAARFMPERQVITTEEALELSVDPSYYRDCSDVVLITSRGGNRYHRAVRQAFLKPGIGLENWVSRTNFPALGFIHTKPDEISFYMNKNYAQPNAYLSRFSFPLDRLGYLEASDSYGELITKSIPISSQDDLHLNLSTSAAGSCFVALLDENDATVSQFDMSSCLELIGNELSKPVRWLSSNGVSLRIGDSGLSSVKLHIRLLDARLFAFSLCSTDR”, the “soluble on expression in E. coli” value was “not soluble”. Next, “MALEKEEEASQNGAFCVLDGLYCEEETGFVEDDLDDDGDLDFLEKSDESVVKFQFLPLLDMFLWDDDEILSLISKENETNPCFGEQILDGFLVSCRKEALDWVLRVKSHYGFTSLTAILAVNYFDRFMTSIKLQTDKPWMSQLVAVASLSLAAKVEEIQVPLLLDLQVEEARYLFEAKTIQRMELLILSTLQWRMHPVTPISFFDHIIRRFGSKWHQQLDFCRKCERLLISVIADTRFMRYFPSVLATAIMILVFEELKPCDEVEYQSQITTLLKVNQEKVNECYELLLEHNPSKKRMMNLVDQDSPSGVLDFDDSSNSSWNVSTTASVSSSSSSPEPLLKRRRVQEQQMRLPSINRMFLDVLSSPR”: “soluble”; “MGSDKIHHHHHHMINRYLGDPPFESPERRNRLPERHKVKAGFSPTIDCAVLIAAAEKGFAADEGIELELFREQSARAVLAALGGDDIHIGHLPAPVPVGSAVGLDDLPADIVGVFTLSLGGSATAVSHGFYDELYREGMKLPDPAAFGRAMARVCAARRAAGKNPPVFAVEDIVSTPFYTLRYLLGSCGVLLGRDMEIIEALPKAMPALLESGKVDALCTAEPAGSAVVLGGAGRIVTTGALIWHNAPEKILAVKKGWAEENATLLEGLLRALYRAGEWCANDANIEELAGILAAPQYIDENGEFLLPALTGYISTSQRDMQRFQEFFVTSAKAANFPWQSQALWFFSQMLRWGEVPAERRLEPTMAEAARNAYRPDIFRKAMKPLFVPVPGANLKLEGTLKEPVHVGASRTGLVLGPDCFFDGRVFDPETLEMDDEI”: “not soluble”; “MPSVPRVDRLKPIYTAAKALNFGWRFSDFLKIPAYNGISRYTNQLHRITVRFCKQSESSVGVRNFIENQLVEIGRKNPSVVIYAQPVRNSNPSIRAEYGNGRTLQINAKNMTQDEVSKDVHLLFSRSGEPVVKLESRQSALVPSIQGQWTPITWLPTEMNTEQLPAKQFSKHKSTATSATEYILQNPPK”: “not soluble”. Regarding “MARPLEQAVAAIVCTFQEYAGRCGDKYKLCQAELKELLQKELATWTPTEFRECDYNKFMSVLDTNKDCEVDFVEYVRSLACLCLYCHEYFKDCPSEPPCSQ”, the “soluble on expression in E. coli” value is “soluble”. Next, “MGSDKIHHHHHHMPEFMKPIHSVILIQNLQARIETCAEMAVNVFQNLNTASLLCPSNTGGWSIVQCLDHLNSYGDYYLPHIQKAFDTHMPGKPAEDVKSSWLGNYFTQLMLPDSGKKYKAFKKHIPKPRLDSAAVVATFIEQQEILLTYLEKAKKYDMNTIRISISIAPFIKLKLGDVFQFLVAHTERHVQQAQRNVPIYE”: “not soluble”; “MGSDKIHHHHHHMDDRARALLKALIERYIADGQPVGSRTLSKVFDLSPATIRNVMADLEELGLIHSPHTSAGRVPTPRGYRMFVDSLLAVRAYQFEPAHIGELLPVSEPSRAVNAAAALLSNLTQFAGVVLTPKRTQIFRQIEFIRLSDKRVLLIIVTPEGDVQNRILSAQRDYTEAELLEAGNFFNVHFSGKSFDAVRRTLSTELAQLRDDISRLMQAAVEAGAEAADDGEAVVISGERKLLDVTDIASDMDRLRKMFSLFEKKTDLLQLLDVSSRAQGVQIYIGGDSQLVPMEEVSVITAPYGVDGKVIGTLGVIGPTRMAYERVIPIVDITARLLSNALSHNQ”: “not soluble”; “MSPKSVVVTGSNRGLGFGLVQQFLKDPNVQHVIATARDVDKATALKGICDPRLHILQLSLGSDESIANFAEKVSEIVGESGLTLLINNAAVMLPYVTKQKPDRKVVLDLFESNTIGPMMLTQSLVPLIIKASKRQEGDTLSVSRGAIINIASEFLGSISENTSGSGEYKAMAYRMTKCAVNQFTKTLSIDLKDDHILTAGICPGMVQTDMSKGKGQLTIEESSSQILAAFNKLGATHNGGYFRRDLSIIPY”: “not soluble”. Next, “MDSIGGVLNTMKKNLLITLALIIMSHHSAYAQDELTYIPIPKANQIADLNDLDKDGVINARDLCAGTPIGAEVDNDGCETYLHKEEQYQLK”: “not soluble”; “MAHHHHHHMMLRRLFVFDAARATNMRFLTMTSEVRDNLTKQLSALKEECRGQGLDLADMSDASRVAMRTVQEGLTRVSVEDEIFKGKSITLSASMKAYTARLSNLQDEARSIQTEVDALLKMMWGTEAPTKAASFASPPRSTEEVGVSSSSAAAAAGGKGNETVDDEFIVEPPPLAKALGNDKRPAERVEAERVQGTAHKPVEEMRVEEIEVETIEVEVEPNESPADNMKITDITRELYERGVNFSDCLDARTLRQRYKDVLAGKISPGISPGTATSSPATAEANTNQPRMPQHRPYQQQQQQQQQQLNTNESGLAHDPYPNAYRKMVDPMKHVWELKNELAAEKGIDPKSVDLWSGKCKLEDHKLLYDYPSVQNYPIEVRQKGDIPR”: “not soluble”.

With “SESLVVCDVAEDLVEKLRKFRFRKETHNAAIIMKIDKDERLVVLDEELEGVSPDELKDELPERQPRFIVYSYKYQHDDGRVSYPLCFIFSSPVGCKPEQQMMYAGSKNKLVQTAELTKVFEIRNTEDLTEEWLREKLG”, the “soluble on expression in E. coli” value is “soluble”. In the case of “SLQDFWCSTLVKGVIYGSYSVSEMFPKNFTNCTWTLENPDPTKYSIYLKFSKKDLSCSNFSLLAYQFDHFSHEKIKDLLRKNHSIMQLCNSKNAFVFLQYDKNFIQIRRVFPTNFPGLQKKGEEDQKSFFEFLVLNKVSPSQFGCHVLCTWLESCLKSENGRTESCGIMYTKCTCPQHLGEWGIDDQSLILLNNVVLPLNEQTEGCLTQELQTTQVCNLTREAKRPPKEEFGMMGDHTIKSQRPRSVHEKRVPQEQADAAKFMAQTG”, the “soluble on expression in E. coli” value is “soluble”. For “MTETTYENLTRRIDRISAEMREISEENGLRILSLLESQTKSIKDELSRLLWIELPELNESHKIEAVSKSTTGMFFAPGIFEMDAMRKAFFKRQAKHFFENEAEQQAYIEHAEKEYLEATVTLKDILFNSKNGTQKANKSCLIEKFEEAMQ”, the “soluble on expression in E. coli” value is “not soluble”. With “MGSDKIHHHHHHMNKQVSTRGTKEKALRLNLDDKKYGTIVEIGAGQEVARNFFVAGAAAGTIAKTMSAYDMTFSDAIYGVQQDGRYVSKARVQAMMEQELDLVIERVGDVRSKSSRYFTYAATVAAKSFNRNNECHAWCGVRVQMYPGAEPSNIVVHVRMFDDNAEAQQQALGVLGVNLIYAAYYYFEDPKKIIDSLTDDLKANRIEIDCIEFQGPYFEDIDSRAKNIHLIRSWKTRAIMFKPDGSVAVPAEMLYKKNVLTIRGSFKPVTKLNVDMIEQGEKAFAELEGVSKDNTIVIAEISLNDSHGKDANMSSTDIIERVKLLNLLGYNVMVSDYTRYFSLRAYFRQYTKLQIGIVVGMINIKQIFDETFYRGLEGGILEGFGKLFPDHTRVFVYPELSETGELKDLTTVNVPNNLRYLYRHLLDNGFITSIESSDINLFSYFSREILKQIAKGSDEWQQALPQPVIDEIISKKLFGYRG”, the “soluble on expression in E. coli” value is listed as “not soluble”. Consider “MSLIVSTIASHSSLQILLGAKKEGFKTRLYVSPKRRPFYSSLPIVDDLVVAEEMTSILNDDGIVVPHGSFVAYLGIEAIEKAKARFFGNRRFLKWETTFELQDKALEGAGIPRVEVVEPEDAKPDELYFVRIEGPRGGSGHFIVEGSELEERLSTLEEPYRVERFIPGVYLYVHFFYSPILERLELLGVDERVLIADGNARWPVKPLPYTIVGNRAIALRESLLPQLYDYGLAFVRTMRELEPPGVIGPFALHFAYDGSFKAIGIASRIDGGSNADHWYSELYWGERLSMGRRIARELRLAEEEDRLEEVVTEGHHHHHH”, for which the “soluble on expression in E. coli” value is given as “soluble”.
